Results reported in patent US20180037631A1 (Bristol-Myers Squibb, published 2018).
Where a chain is given by its changes, count along the chain named. In names and notes the source's numbering stands. Several values for one entry are separate records, joined by “and”; a condition that tells them apart may be missing. Equal values may be shown once.

B1: I1-GSGCGS8-E5 pegylated (designed binder)
chain: MGVSDVPRDLEVVAATPTSLLISWSARLKVARYYRITYGETGGNSPVQEFTVPKNVYTATISGLKPGVDYTITVYAVTRFRDYQPISINYRTEIEKGSGCGSGSGSGSGSGSGSGSVSDVPRDLEVVAATPTSLLISWWAPVDRYQYYRITYGETGGNSPVQEFTVPRDVYTATISGLKPGVDYTITVYAVTDYKPHADGPHTYHESPISINYRTEHHHHHH
modifications: PEG on the Cys of the GSGCGS8 linker
notes: alternative clone of I1-GS10-E5 pegylated; tail of first monomer EIEK (D to E); also called I1-GSGCGS8-E5(3)
B2: I1(S91C)-GS10-E5 pegylated (designed binder)
chain: B1 chain with S87C, C100S
modifications: PEG on Cys at position 91 of I1 (position of SEQ ID NO: 1)
notes: also called I1(S91C)-GS10-E5(7)
B3: I1-GS10-E5 pegylated without the 6HIS tag (designed binder)
chain: B1 chain with E95D, C100S, H217I, H218D, H219K, H220P, H221C, H222Q
modifications: PEG on the Cys of the C-terminal Cys tail
notes: Whether the D-to-E change in the tail of the first monomer applies to this construct is not clear; also called I1-GS10-E5 pegylated(1)
B4: I1(S62C)-GS10-E5 pegylated (designed binder)
chain: B1 chain with S62C, C100S
modifications: PEG on Cys at position 62 of I1 (position of SEQ ID NO: 1)
notes: also called I1(S62C)-GS10-E5(5)
B5: E98 (designed binder)
10Fn3 domain: MGVSDVPRDLEVVAATPTSLLISWDAPTSRYQYYRITYGETGGNSPVQEFTVPGGVRTATISGLKPGVDYTITVYAVTDHKPHADGPHTYHEYPISINYRTEIDKPSQ
B6: E96-GS10-I1 pegylated (designed binder)
E/I tandem 10Fn3 chain: MGVSDVPRDLEVVAATPTSLLISWASNRGTYQYYRITYGETGGNSPVQEFTVPGGVSTATISGLKPGVDYTITVYAVTDAFNPTTHEYNYFTTPISINYRTEIDKGSGSGSGSGSGSGSGSGSGSVSDVPRDLEVVAATPTSLLISWSARLKVARYYRITYGETGGNSPVQEFTVPKNVYTATISGLKPGVDYTITVYAVTRFRDYQPISINYRTEIDKPCQHHHHHH
modifications: Cys of the C-terminal Cys tail conjugated to 40 kDa branched PEG
B7: E105-GS10-I1 pegylated (designed binder)
E/I tandem 10Fn3 chain: MGVSDVPRDLEVVAATPTSLLISWDAPTSRYQYYRITYGETGGNSPVQEFTVPGGLSTATISGLKPGVDYTITVYAVTDYKPHADGPHTYHESPISINYRTEIDKGSGSGSGSGSGSGSGSGSGSVSDVPRDLEVVAATPTSLLISWSARLKVARYYRITYGETGGNSPVQEFTVPKNVYTATISGLKPGVDYTITVYAVTRFRDYQPISINYRTEIDKPCQHHHHHH
modifications: Cys of the C-terminal Cys tail conjugated to 40 kDa branched PEG
B8: E105-GS10-I1 pegylated (designed binder)
chain: B7 E/I tandem 10Fn3 chain
modifications: chain 1 pos 221: Cys carrying a maleimide-linked 40 kDa branched PEG, written C
notes: lower row of the two named E105-GS10-I1 pegylated
B9: E5-GS10-I1 pegylated (designed binder)
E/I tandem 10Fn3 chain: B7 E/I tandem 10Fn3 chain with D25W, T28V, S29D, G54R, G55D, L56V, S57Y
modifications: Cys of the C-terminal Cys tail conjugated to 40 kDa branched PEG
B10: E85-GS10-I1 pegylated (designed binder)
E/I tandem 10Fn3 chain: MGVSDVPRDLEVVAATPTSLLISWTQGSTHYQYYRITYGETGGNSPVQEFTVPGMVYTATISGLKPGVDYTITVYAVTDYFDRSTHEYKYRTTPISINYRTEIDKGSGSGSGSGSGSGSGSGSGSVSDVPRDLEVVAATPTSLLISWSARLKVARYYRITYGETGGNSPVQEFTVPKNVYTATISGLKPGVDYTITVYAVTRFRDYQPISINYRTEIDKPCQHHHHHH
modifications: Cys of the C-terminal Cys tail conjugated to 40 kDa branched PEG
B11: E90-GS10-I1 pegylated (designed binder)
E/I tandem 10Fn3 chain: MGVSDVPRDLEVVAATPTSLLISWYWEGLPYQYYRITYGETGGNSPVQEFTVPRDVNTATISGLKPGVDYTITVYAVTDWYNPDTHEYIYHTIPISINYRTEIDKGSGSGSGSGSGSGSGSGSGSVSDVPRDLEVVAATPTSLLISWSARLKVARYYRITYGETGGNSPVQEFTVPKNVYTATISGLKPGVDYTITVYAVTRFRDYQPISINYRTEIDKPCQHHHHHH
modifications: Cys of the C-terminal Cys tail conjugated to 40 kDa branched PEG
B12: I1-GS10-E112 pegylated (designed binder)
I/E tandem 10Fn3 chain: MGVSDVPRDLEVVAATPTSLLISWSARLKVARYYRITYGETGGNSPVQEFTVPKNVYTATISGLKPGVDYTITVYAVTRFRDYQPISINYRTEIDKGSGSGSGSGSGSGSGSGSGSVSDVPRDLEVVAATPTSLLISWDAGAVTYQYYRITYGETGGNSPVQEFTVPGGVRTATISGLKPGVDYTITVYAVTDYKPHADGPHTYHEYPISINYRTEIDKPCQHHHHHH
modifications: Cys of the C-terminal Cys tail conjugated to 40 kDa branched PEG

target: T1, IGF1R-Fc (extracellular domain of human IGF1R aa 1-932 fused to hinge and constant regions of human IgG1) (human, UniProt P08069 31-932); experiment: SPR Biacore, IGF1R-Fc; against I1-GS10-E5 pegylated
T1 construct: range 1-932; made in house by transient transfection, purified on Protein A; also called IGF-IR-Fc; not shown: hinge and constant regions of human IgG1

Row | ΔKd (fold) | Δka (fold) | Δkd (fold) | Binder
1 | 0.9 | 0.8 | 1.1 | B1
2 | 0.04 | 0.1 | 0.4 | B2
3 | 1.1 | 1.2 | 0.9 | B3
4 | 0.4 | 0.3 | 1.1 | B4

target: T2, EGFR on the surface of human tumour cells (A431, H292) (human, UniProt P00533 25-1210); experiment: cell-based or functional assay

Row | % inhibition of EGFR phosphorylation at 100 nM binder, cell-based assay [%] | Binder
5 | 75.8 | B5

target: T1, IGF1R-Fc (extracellular domain of human …); experiment: not given

Row | Kd [nM] | Binder
6 | 0.96 | B6
7 | 1.35 | B7
8 | 1.19 | B8
9 | 1.16 | B9
10 | 0.75 | B10
11 | 1.5 | B11

target: T3, IGF-IR on human tumour cells (H292, MCF-7, RH41) (human, UniProt P08069 31-1367); experiment: cell-based or functional assay

Row | IC50, IGF1-stimulated IGFR phosphorylation, H292 cells, ELISA [nM] | Binder
12 | 0.3 | B12
13 | 0.4 | B6
14 | 0.5 | B7
15 | 0.5 | B8
16 | 0.4 | B9
17 | 0.3 | B10
18 | 0.4 | B11

target: T2, EGFR on the surface of human tumour …; experiment: cell-based or functional assay; remark: another data set of the same source

Row | IC50, EGF-induced EGFR phosphorylation, A431 cells, In Cell Western [nM] | IC50, EGF-induced ERK phosphorylation, A431 cells, In Cell Western [nM] | IC50, EGF-stimulated EGFR phosphorylation, H292 cells, ELISA [nM] | Binder
19 | 61 | 54 | 10 | B6
20 | 56 | 61 | 15 | B7
21 | 61 | 49 | 16 | B8
22 | 15 | 15 | 4 | B10
23 | 65 | 63 | 10 | B11

target: T2, EGFR on the surface of human tumour …; experiment: not given

Row | IC50 [nM] | Binder
24 | 43.8 | B6
25 | 75 | B7
26 | 93.8 | B8
27 | 65.9 | B10
28 | 69.1 | B11

target: T4, Recombinant human EGFR-Fc (aa 1-645 of the extracellular domain of human EGFR fused to human Fc) (human, UniProt P00533 25-645); experiment: not given
T4 construct: range 1-645; bought from R&D Systems; also called EGFR645-Fc; EGFR-Fc (HER-1); not shown: human Fc

Row | Kd [nM] | Binder
29 | 24.2 | B6
30 | 9.28 | B7
31 | 7.65 | B8
32 | 4.76 | B10
33 | 13.5 | B11

target: T4, Recombinant human EGFR-Fc (aa 1-645 of …); experiment: SPR Biacore, EGFR645-Fc

Row | Kd [nM] | koff [s⁻¹] | kon [M⁻¹ s⁻¹] | Binder
34 | 4 | 0.000118 | 29400 | B1
35 | 17 | 0.000334 | 19600 | B2
36 | 8.7 | 0.000199 | 22800 | B4

target: T4, Recombinant human EGFR-Fc (aa 1-645 of …); experiment: SPR Biacore, EGFR645-Fc; against I1-GS10-E5 Pegylated

Row | ΔKd (fold) | Δka (fold) | Δkd (fold) | Binder
37 | 0.7 | 1 | 0.6 | B1
38 | 0.2 | 0.7 | 0.2 | B2
39 | 0.3 | 0.8 | 0.4 | B4

target: T3, IGF-IR on human tumour cells (H292, …); experiment: cell-based or functional assay; remark: another data set of the same source

Row | pIGFR IC50 [nM] | Binder
40 | 1.4 | B1
41 | 6.2 | B2
42 | 1.2 | B3
43 | 1.9 | B4

target: T2, EGFR on the surface of human tumour …; experiment: cell-based or functional assay; remark: another data set of the same source

Row | pEGFR IC50 [nM] | pERK IC50 [nM] | Binder
44 | 19.8 | 8 | B1
45 | 22.7 | 15 | B2
46 | 30 | 11 | B3
47 | 21 | 10 | B4

target: T1, IGF1R-Fc (extracellular domain of human …); experiment: SPR Biacore, IGF1R-Fc

Row | Kd | koff | kon | Binder
48 | 0.29 nM | 0.000245 s⁻¹ | 852000 M⁻¹ s⁻¹ | B1
49 | 7.16 nM | 0.000589 s⁻¹ | 82200 M⁻¹ s⁻¹ | B2
50 | 0.22 nM and 0.23 nM | 0.000288 s⁻¹ and 0.000276 s⁻¹ | 1.28e+06 M⁻¹ s⁻¹ and 1.22e+06 M⁻¹ s⁻¹ | B3
51 | 0.7 nM | 0.000234 s⁻¹ | 334000 M⁻¹ s⁻¹ | B4

target: T1, IGF1R-Fc (extracellular domain of human …); experiment: SPR Biacore

Row | Kd [nM] | Binder
52 | 0.29 | B1
53 | 7.16 | B2
54 | 0.23 | B3
55 | 0.7 | B4

target: T4, Recombinant human EGFR-Fc (aa 1-645 of …); experiment: SPR Biacore

Row | Kd [nM] | Binder
56 | 4 | B1
57 | 17 | B2
58 | 8.7 | B4
